Data published in patent publication US20220251207A1 (JIANGSU ALPHAMAB BIOPHARMACEUTICALS, published 2022).

Columns and labels:
[1] = biological target: T1, human CTLA4 expressed on HEK293-CTLA4 cells (human, UniProt P16410 36-223); assay: flow cytometry on HEK293-CTLA4 cells, MFI, four-parameter fit
T1 construct: whole, on cells; also called human CTLA4 on the cell surface
Protocol: 3% of BSA/PBS was used to adjust the density of HEK293-CTLA4 cells to 3×10⁶ cells/ml.
Then, APC-goat anti-mouse IgG at a dilution of 1:100 was used, and placed on ice for 30 min for reaction. After that, they were washed with 1% of BSA/PBS and resuspended, and then detected on a FACS machine (using a Guava EasyCyte instrument).
The flow cytometry results were analyzed by Guava 5.3.1 to calculate the mean fluorescence intensity (MFI) of the detected samples. The log values of the obtained MFI versus the concentrations of the samples were calculated, and the experimental results were fit with four parameters using GraphPad Prism 6.0.

[2] = biological target: T1, human CTLA4 expressed on HEK293-CTLA4 …; assay: competitive flow cytometry; taken as HEK293-CTLA4 cells with CD86-muFc as the blocked ligand, from the order of paragraph 274 and paragraph 275; the panel has no title
[3] = biological target: CTLA4-muFc (fusion protein of human CTLA4 and mouse Fc) (human); assay: competitive flow cytometry; taken as CTLA4-muFc with human CD86 on HEK293-CD86 cells as the blocked ligand, from the order of paragraph 274 and paragraph 275; the panel has no title

B1: KN044 (VHH)
VHH: QVQLVESGGGLVQPGGSLRLSCAASGYIYSAYCMGWFRQAPGKGLEGVAAIYIGGGSTYYADSVKGRFTISRDNSKNTLYLQMNSLRAEDTAVYYCAADVIPTETCLGGSWSGPFGYWGQGTLVTVSS
[1]
  EC50: 2.01 nM
[2]
  IC50 (read off the curve): ~8 nM
[3]
  IC50 (read off the curve): ~10 nM
